Patent US10196657B2, “Methods of producing 7-carbon chemicals via methyl-ester shielded carbon chain elongation” (INVISTA North America S.á r.l., priority 2012, dated 2019)
One block for each molecule: values may come before it.

How the values were obtained:
[1] = ω-transaminase activity assay, forward direction (pimelate semialdehyde to 7-aminoheptanoate); format: biochemical; details: concluded from reversibility of the ω-transaminase activity
Experimental: (§1) A sequence encoding an N-terminal His-tag was added to the genes from Chromobacterium violaceum, Pseudomonas syringae, Rhodobacter sphaeroides, and Vibrio Fluvialis encoding the ω-transaminases of SEQ ID NOs: 8, 10, 11 and 13, respectively (see FIGS. 7F and 7G) such that N-terminal HIS tagged ω-transaminases could be produced. Each of the resulting modified genes was cloned into a pET21a expression vector under control of the T7 promoter and each expression vector was transformed into a BL21[DE3] E. coli host. The resulting recombinant E. coli strains were cultivated at 37° C. in a 250 mL shake flask culture containing 50 mL LB media and antibiotic selection pressure, with shaking at 230 rpm. Each culture was induced overnight at 16° C. using 1 mM IPTG.
(§2) The pellet from each induced shake flask culture was harvested via centrifugation. Each pellet was resuspended and lysed via sonication. The cell debris was separated from the supernatant via centrifugation and the cell free extract was used immediately in enzyme activity assays.
Enzyme activity in the forward direction (i.e., pimelate semialdehyde to 7-aminoheptanoate) was confirmed for the transaminases of SEQ ID NO 10, SEQ ID NO 11 and SEQ ID NO 13. Enzyme activity assays were performed in a buffer composed of a final concentration of 50 mM HEPES buffer (pH=7.5), 10 mM pimelate semialdehyde, 10 mM L-alanine and 100 μM pyridoxyl 5′ phosphate. Each enzyme activity assay reaction was initiated by adding a cell free extract of the ω-transaminase gene product or the empty vector control to the assay buffer containing the pimelate semialdehyde and incubated at 25° C. for 4 h, with shaking at 250 rpm. The formation of pyruvate was quantified via RP-HPLC.

[2] = Kaulmann et al., 2007; cited from earlier work
[3] = ω-transaminase activity assay, reverse direction (7-aminoheptanoate to pimelate semialdehyde); format: biochemical; details: cell free extract, 10 mM 7-aminoheptanoate, 10 mM pyruvate, 25° C., 4 h; against empty vector control; FIG. 15
Experimental: as §1, §2
Enzyme activity assays in the reverse direction (i.e., 7-aminoheptanoate to pimelate semialdehyde) were performed in a buffer composed of a final concentration of 50 mM HEPES buffer (pH=7.5), 10 mM 7-aminoheptanoate, 10 mM pyruvate and 100 μM pyridoxyl 5′ phosphate. Each enzyme activity assay reaction was initiated by adding cell free extract of the ω-transaminase gene product or the empty vector control to the assay buffer containing the 7-aminoheptanoate and incubated at 25° C. for 4 h, with shaking at 250 rpm. The formation of L-alanine from pyruvate was quantified via RP-HPLC.

[4] = ω-transaminase activity assay, 7-aminoheptanol to 7-oxoheptanol; format: biochemical
Experimental: A nucleotide sequence encoding an N-terminal His-tag was added to the Chromobacterium violaceum, Pseudomonas syringae and Rhodobacter sphaeroides genes encoding the ω-transaminases of SEQ ID NOs: 8, 10 and 11, respectively (see FIGS. 7F and 7G) such that N-terminal HIS tagged ω-transaminases could be produced. The modified genes were cloned into a pET21a expression vector under the T7 promoter. Each expression vector was transformed into a BL21[DE3] E. coli host. Each resulting recombinant E. coli strain were cultivated at 37° C. in a 250 mL shake flask culture containing 50 mL LB media and antibiotic selection pressure, with shaking at 230 rpm. Each culture was induced overnight at 16° C. using 1 mM IPTG.
as §2
Enzyme activity assays in the reverse direction (i.e., 7-aminoheptanol to 7-oxoheptanol) were performed in a buffer composed of a final concentration of 50 mM HEPES buffer (pH=7.5), 10 mM 7-aminoheptanol, 10 mM pyruvate, and 100 μM pyridoxyl 5′ phosphate. Each enzyme activity assay reaction was initiated by adding cell free extract of the ω-transaminase gene product or the empty vector control to the assay buffer containing the 7-aminoheptanol and then incubated at 25° C. for 4 h, with shaking at 250 rpm. The formation of L-alanine was quantified via RP-HPLC.

[5] = Haywood et al. 1988; Slater et al. 1998; cited from earlier work
[6] = Samsonova et al., 2003; cited from earlier work
[7] = Carboxylate reductase activity assay, pimelate to pimelate semialdehyde (NADPH consumption); format: biochemical; details: purified enzyme enhanced by sfp gene product, 2 mM pimelate, room temperature, 20 min; against empty vector control; FIG. 10
Experimental: A sequence encoding a HIS-tag was added to the genes from Segniliparus rugosus and Segniliparus rotundus that encode the carboxylate reductases of SEQ ID NOs: 4 and 7, respectively (see FIGS. 7C and 7F), such that N-terminal HIS tagged carboxylate reductases could be produced. Each of the modified genes was cloned into a pET Duet expression vector along with a sfp gene encoding a HIS-tagged phosphopantetheine transferase from Bacillus subtilis, both under the T7 promoter. Each expression vector was transformed into a BL21[DE3] E. coli host and the resulting recombinant E. coli strains were cultivated at 37° C. in a 250 mL shake flask culture containing 50 mL LB media and antibiotic selection pressure, with shaking at 230 rpm. Each culture was induced overnight at 37° C. using an auto-induction media.
The pellet from each induced shake flask culture was harvested via centrifugation. Each pellet was resuspended and lysed via sonication, and the cell debris was separated from the supernatant via centrifugation. […]
Enzyme activity assays (i.e., from pimelate to pimelate semialdehyde) were performed in triplicate in a buffer composed of a final concentration of 50 mM HEPES buffer (pH=7.5), 2 mM pimelate, 10 mM MgCl2, 1 mM ATP and 1 mM NADPH. […] The consumption of NADPH was monitored by absorbance at 340 nm.

acceptance of 7-aminoheptanoate as substrate (formation of L-alanine from pyruvate, RP-HPLC) [3]: accepted 7-aminoheptanote as substrate | acceptance of 7-aminoheptanol as substrate (formation of L-alanine, RP-HPLC) ([4]; cell free extract, 10 mM 7-aminoheptanol, 10 mM pyruvate, 25° C., 4 h, against empty vector control, FIG. 19): accepted 7-aminoheptanol as substrate | acceptance of 7-oxoheptanol as substrate, forming 7-aminoheptanol (concluded from reversibility) ([4]; concluded from reversibility of the ω-transaminase activity (Example 2)): accept 7-oxoheptanol as substrate
B1: SEQ ID NO 8: Chromobacterium violaceum ω-transaminase, Genbank Accession No. AAQ59697.1 (protein, listed as Chromobacterium violaceum)
chain: MQKQRTTSQWRELDAAHHLHPFTDTASLNQAGARVMTRGEGVYLWDSEGNKIIDGMAGLWCVNVGYGRKDFAEAARRQMEELPFYNTFFKTTHPAVVELSSLLAEVTPAGFDRVFYTNSGSESVDTMIRMVRRYWDVQGKPEKKTLIGRWNGYHGSTIGGASLGGMKYMHEQGDLPIPGMAHIEQPWWYKHGKDMTPDEFGVVAARWLEEKILEIGADKVAAFVGEPIQGAGGVIVPPATYWPEIERICRKYDVLLVADEVICGFGRTGEWFGHQHFGFQPDLFTAAKGLSSGYLPIGAVFVGKRVAEGLIAGGDFNHGFTYSGHPVCAAVAHANVAALRDEGIVQRVKDDIGPYMQKRWRETFSRFEHVDDVRGVGMVQAFTLVKNKAKRELFPDFGEIGTLCRDIFFRNNLIMRACGDHIVSAPPLVMTRAEVDEMLAVAERCLEEFEQTLKARGLA
acceptance of pimelate semialdehyde as substrate, synthesizing 7-aminoheptanoate (conclusion from confirmed reversibility) [1]: accepted pimelate semialdehyde as substrate | activity accepting 6-aminohexanoic acid as amino donor [2]: accepting 6-aminohexanoic acid as amino donor

B2: β-ketothiolase encoded by bktB from Cupriavidus necator: β-ketothiolase classified under EC 2.3.1.16, gene product of bktB (protein, UniProt Q0KBP1 1-394, looked up)
Beta-ketothiolase BktB: MTREVVVVSGVRTAIGTFGGSLKDVAPAELGALVVREALARAQVSGDDVGHVVFGNVIQTEPRDMYLGRVAAVNGGVTINAPALTVNRLCGSGLQAIVSAAQTILLGDTDVAIGGGAESMSRAPYLAPAARWGARMGDAGLVDMMLGALHDPFHRIHMGVTAENVAKEYDISRAQQDEAALESHRRASAAIKAGYFKDQIVPVVSKGRKGDVTFDTDEHVRHDATIDDMTKLRPVFVKENGTVTAGNASGLNDAAAAVVMMERAEAERRGLKPLARLVSYGHAGVDPKAMGIGPVPATKIALERAGLQVSDLDVIEANEAFAAQACAVTKALGLDPAKVNPNGSGISLGHPIGATGALITVKALHELNRVQGRYALVTMCIGGGQGIAAIFERI
substrates accepted, forming the CoA-activated C7 aliphatic backbone [5]: accepts propanoyl-CoA and pentanoyl-CoA as substrates

B3: SEQ ID NO 12: Escherichia coli diamine ω-transaminase, Genbank Accession No. AAA57874.1 (protein, listed as Escherichia coli)
chain: MNRLPSSASALACSAHALNLIEKRTLDHEEMKALNREVIEYFKEHVNPGFLEYRKSVTAGGDYGAVEWQAGSLNTLVDTQGQEFIDCLGGFGIFNVGHRNPVVVSAVQNQLAKQPLHSQELLDPLRAMLAKTLAALTPGKLKYSFFCNSGTESVEAALKLAKAYQSPRGKFTFIATSGAFHGKSLGALSATAKSTFRKPFMPLLPGFRHVPFGNIEAMRTALNECKKTGDDVAAVILEPIQGEGGVILPPPGYLTAVRKLCDEFGALMILDEVQTGMGRTGKMFACEHENVQPDILCLAKALGGGVMPIGATIATEEVFSVLFDNPFLHTTTFGGNPLACAAALATINVLLEQNLPAQAEQKGDMLLDGFRQLAREYPDLVQEARGKGMLMAIEFVDNEIGYNFASEMFRQRVLVAGTLNNAKTIRIEPPLTLTIEQCELVIKAARKALAAMRVSVEEA
diamine substrate range [6]: accepts a broad range of diamine carbon chain length substrates

acceptance of pimelate as substrate (NADPH consumption, absorbance at 340 nm) [7]: accepted pimelate as substrate
B4: SEQ ID NO 4: Segniliparus rugosus carboxylate reductase, Genbank Accession No. EFV11917.1 (protein, listed as Segniliparus rugosus)
chain: MGDGEERAKRFFQRIGELSATDPQFAAAAPDPAVVEAVSDPSLSFTRYLDTLMRGYAERPALAHRVGAGYETISYGELWARVGAIAAAWQADGLAPGDFVATVGFTSPDYVAVDLAAARSGLVSVPLQAGASLAQLVGILEETEPKVLAASASSLEGAVACALAAPSVQRLVVFDLRGPDASESAADERRGALADAEEQLARAGRAVVVETLADLAARGEALPEAPLFEPAEGEDPLALLIYTSGSTGAPKGAMYSQRLVSQLWGRTPVVPGMPNISLHYMPLSHSYGRAVLAGALSAGGTAHFTANSDLSTLFEDIALARPTFLALVPRVCEMLFQESQRGQDVAELRERVLGGRLLVAVCGSAPLSPEMRAFMEEVLGFPLLDGYGSTEALGVMRNGIIQRPPVIDYKLVDVPELGYRTTDKPYPRGELCIRSTSLISGYYKRPEITAEVFDAQGYYKTGDVMAEIAPDHLVYVDRSKNVLKLSQGEFVAVAKLEAAYGTSPYVKQIFVYGNSERSFLLAVVVPNAEVLGARDQEEAKPLIAASLQKIAKEAGLQSYEVPRDFLIETEPFTTQNGLLSEVGKLLRPKLKARYGEALEARYDEIAHGQADELRALRDGAGQRPVVETVVRAAVAISGSEGAEVGPEANFADLGGDSLSALSLANLLHDVFEVEVPVRIIIGPTASLAGIAKHIEAERAGASAPTAASVHGAGATRIRASELTLEKFLPEDLLAAAKGLPAADQVRTVLLTGANGWLGRFLALEQLERLARSGQDGGKLICLVRGKDAAAARRRIEETLGTDPALAARFAELAEGRLEVVPGDVGEPKFGLDDAAWDRLAEEVDVIVHPAALVNHVLPYHQLFGPNVVGTAEIIRLAITAKRKPVTYLSTVAVAAGVEPSSFEEDGDIRAVVPERPLGDGYANGYGNSKWAGEVLLREAHELVGLPVAVFRSDMILAHTRYTGQLNVPDQFTRLVLSLLATGIAPKSFYQQGAAGERQRAHYDGIPVDFTAEAITTLGAEPSWFDGGAGFRSFDVFNPHHDGVGLDEFVDWLIEAGHPISRIDDHKEWFARFETAVRGLPEAQRQHSLLPLLRAYSFPHPPVDGSVYPTGKFQGAVKAAQVGSDHDVPHLGKALIVKYADDLKALGLL
